# Experimental data published in patent US20130150297A1 (KAI PHARMACEUTICALS, published 2013).
# Square brackets hold non-standard residues; d marks the D form. Ends that are not written are not given here.
# B1: Ac-CaRrRaR-NH2 (peptide)
# peptide: CXRXRXR
# modifications: N-terminal acetyl; C-terminal amide; L-Cys 1, D-Ala 2, L-Arg 3, D-Arg 4, L-Arg 5, D-Ala 6, L-Arg 7
# B2: Ac-bAla-crrrrrr-NH2 (peptide)
# peptide: XXXXXXXX
# modifications: N-terminal acetylated beta-alanine; C-terminal amide; Cys and Arg residues are D-amino acids
# B3: Ac-bAla-c(C)arrrar-NH2 (peptide)
# peptide: XXXXXXXX
# modifications: not fully specified; N-terminal acetylated beta-alanine; C-terminal amide; c, a, r residues D-amino acids; D-Cys linked to an L-Cys residue
# B4: Ac-cygrkkrrqrrr-NH2 (peptide)
# peptide: XXXXXXXXXXXX
# modifications: N-terminal acetyl; C-terminal amide; printed in lower case (D-amino acids; glycine is achiral)
# B5: Ac-c(C)arrrar-NH2 (peptide)
# peptide: XXXXXXX
# modifications: N-terminal acetyl; C-terminal amide; all seven residues D-amino acids; D-Cys 1 linked by a disulfide bond to an L-Cys residue
# B6: c(C)arrrar-NH2 (peptide)
# peptide: XXXXXXX
# modifications: no N-terminal cap; C-terminal amide; all seven residues D-amino acids; D-Cys 1 linked to an L-Cys residue
# B7: Ac-c(Mpa)arrrar-NH2 (peptide)
# peptide: XXXXXXX
# modifications: N-terminal acetyl; C-terminal amide; all residues D-amino acids; mercaptopropionic acid (Mpa) attached to the side chain of D-Cys 1
# B8: (SEQ ID NO: 46) (SEQ ID NO: 47) conjugate, structure given only as drawing CHEM-US-00002 (peptide)
# peptide 1: CPDYHDAGI
# peptide 2: CYGRKKRRQRRR
# modifications: cysteine pairing not given here; also: further groups not given here
# B9: Ac-dHcy rrrrrr-NH2 (peptide)
# peptide: XXXXXXX
# modifications: N-terminal acetyl; C-terminal amide; residue 1 is D-homocysteine (dHcy); residues 2-7 D-Arg
# B10: (SEQ ID NO: 45) (SEQ ID NO: 47) conjugate, structure given only as drawing CHEM-US-00001 (peptide)
# peptide 1: CHDAPIGYD
# peptide 2: CYGRKKRRQRRR
# modifications: cysteine pairing not given here; also: further groups not given here
# B11: Ac-c(PEG5-C)rrrrrr-NH2 (peptide)
# peptide: XXXXXXX
# modifications: N-terminal acetyl; C-terminal amide; all residues D-amino acids; L-Cys carrying a 5 kDa polyethylene glycol (PEG5-C) attached to the side chain of D-Cys 1
# B12: Ac-c(acetyl)rrrrrr-NH2 (peptide)
# peptide: XXXXXXX
# modifications: N-terminal acetyl; C-terminal amide; all residues D-amino acids; acetyl attached to the side chain of D-Cys 1
# B13: Ac-c(Ac-C)arrrar-NH2 (peptide)
# peptide: XXXXXXX
# modifications: not fully specified; N-terminal acetyl; C-terminal amide; all seven residues D-amino acids; N-acetyl-L-Cys attached to the side chain of D-Cys 1
# B14: Ac-c(GS)rrrrrr-NH2 (peptide)
# peptide: XXXXXXX
# modifications: N-terminal acetyl; C-terminal amide; all residues D-amino acids; oxidized glutathione (GS) attached to the side chain of D-Cys 1
# B15: Ac-c(Benzoyl)rrrrrr-NH2 (peptide)
# peptide: XXXXXXX
# modifications: N-terminal acetyl; C-terminal amide; all residues D-amino acids; benzoyl attached to the side chain of D-Cys 1
# B16: Ac-caaarrrrrr-NH2 (peptide)
# peptide: Ac-[dC][dA][dA][dA][dR][dR][dR][dR][dR][dR]-NH2
# SMILES: CC(=O)N[C@H](CS)C(=O)N[C@H](C)C(=O)N[C@H](C)C(=O)N[C@H](C)C(=O)N[C@H](CCCNC(=N)N)C(=O)N[C@H](CCCNC(=N)N)C(=O)N[C@H](CCCNC(=N)N)C(=O)N[C@H](CCCNC(=N)N)C(=O)N[C@H](CCCNC(=N)N)C(=O)N[C@H](CCCNC(=N)N)C(N)=O
# B17: Ac-C(C)arrrar-NH2 (peptide)
# peptide: XXXXXXX
# modifications: not fully specified; N-terminal acetyl; C-terminal amide; L-Cys 1 linked by a disulfide bond to an L-Cys residue; residues 2-7 D-amino acids
# Target: T1, human calcium-sensing receptor (CaSR) (human, UniProt P41180 20-1078)
# T1 sequence (looked up): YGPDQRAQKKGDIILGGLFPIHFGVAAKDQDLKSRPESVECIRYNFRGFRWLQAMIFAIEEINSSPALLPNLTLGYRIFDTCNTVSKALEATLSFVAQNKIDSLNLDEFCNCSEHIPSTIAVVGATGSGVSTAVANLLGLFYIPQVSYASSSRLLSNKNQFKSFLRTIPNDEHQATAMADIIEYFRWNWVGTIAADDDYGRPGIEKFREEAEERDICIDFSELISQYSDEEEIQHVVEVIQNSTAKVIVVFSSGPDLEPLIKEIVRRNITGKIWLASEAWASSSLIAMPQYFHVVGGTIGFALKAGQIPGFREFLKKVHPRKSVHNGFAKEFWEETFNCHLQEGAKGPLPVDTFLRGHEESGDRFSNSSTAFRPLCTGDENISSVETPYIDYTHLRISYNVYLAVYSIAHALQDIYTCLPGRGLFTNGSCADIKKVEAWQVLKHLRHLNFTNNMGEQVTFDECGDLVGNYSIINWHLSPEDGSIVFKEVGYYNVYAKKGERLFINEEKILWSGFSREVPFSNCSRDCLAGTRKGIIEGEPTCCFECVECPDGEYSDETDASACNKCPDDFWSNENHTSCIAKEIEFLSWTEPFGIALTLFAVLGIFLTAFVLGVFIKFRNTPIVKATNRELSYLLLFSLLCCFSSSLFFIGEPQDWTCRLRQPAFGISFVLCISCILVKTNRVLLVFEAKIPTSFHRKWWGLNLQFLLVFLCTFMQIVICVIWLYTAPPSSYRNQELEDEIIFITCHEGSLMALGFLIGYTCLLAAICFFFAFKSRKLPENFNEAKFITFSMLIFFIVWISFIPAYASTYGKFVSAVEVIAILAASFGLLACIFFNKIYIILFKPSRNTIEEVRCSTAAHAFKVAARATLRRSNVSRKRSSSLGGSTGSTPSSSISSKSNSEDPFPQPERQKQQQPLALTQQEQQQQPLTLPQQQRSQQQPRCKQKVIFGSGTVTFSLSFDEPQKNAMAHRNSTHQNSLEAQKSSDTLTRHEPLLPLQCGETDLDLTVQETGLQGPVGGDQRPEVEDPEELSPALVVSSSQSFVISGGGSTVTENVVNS
# Assay: cell-based or functional assay
Binder,reduction in potency relative to Ac-carrrar-NH2 (SEQ ID NO:26) [fold],shift in potency in HEK-293 in vitro cell assay (4 versus 5 arginine subunits) [fold],difference in potency relative to Ac-carrrar-NH2 (SEQ ID NO:26) [fold],decrease in potency relative to Ac-carrrar-NH2 (SEQ ID NO:26) [fold]
XGXXXGX (N-terminal acetyl; C-terminal amide; D-amino acids except Gly 2 and Gly 6) [Ac-cGrrrGr-NH2],< 8,,,
XXXXX (N-terminal acetyl; C-terminal amide; all residues D-amino acids) [Ac-crrrr-NH2],,> 10,,
B1,,,< 4,
XAXXXAX (N-terminal acetyl; C-terminal amide; D-amino acids except L-Ala 2 and L-Ala 6) [Ac-cArrrAr-NH2],,,,> 600

# Target: T1, human calcium-sensing receptor (CaSR)
# Assay: cell-based or functional assay
# Remark: another data set of the same source
row,Binder,"EC50 (µM), CaSR in vitro assay (IP1 production) [µM]"
1,B2,1
2,XXXXXXX (N-terminal acetyl; free C-terminal acid (-OH); all residues D-amino acids) [Ac-carrrar-OH],31
3,B3,2.6
4,XXXXXXX (no N-terminal cap; C-terminal amide; all residues D-amino acids) [crrrrrr-NH2],1.1
5,B4,2
6,B5,10
7,XXXXX (N-terminal acetyl; C-terminal amide; all residues D-amino acids) [Ac-crrrr-NH2],16
8,B6,3.1
9,B7,21
10,B8,21
11,Ac-CYGRKKRRQRRR-NH2 [Ac-CYGRKKRRQRRR-NH2],4.5
12,B1,5.6
13,B9,2
14,Ac-CARRRAR-NH2 [Ac-CARRRAR-NH2],58
15,Ac-YGRKKRRQRRR-NH2 [Ac-YGRKKRRQRRR-NH2],16
16,B10,21
17,B11,0.58
18,B12,4.1
19,B13,21
20,XAXXXAX (N-terminal acetyl; C-terminal amide; D-amino acids except L-Ala 2 and L-Ala 6) [Ac-cArrrAr-NH2],> 1000
21,B14,7.8
22,B15,3.6
23,B16,4.6
24,B17,2.5
